Where only a bound is given, the exact number is not on record here.

The target in the assay is SIINFEKL:H-2K^b complex on the surface of A3.1A7 macrophage cells (chicken). The experiment in a line: cell-based or functional assay.

“T cell receptor of the RF33.70 T-T hybridoma (CD8+, SIINFEKL-specific, H-2K^b-restricted) (TCR)” came in with an IL-2 production by the RF33.70 T cell hybridoma (sandwich ELISA), SIINFEKL peptide concentration giving a detectable response of less than 0.1 pg/mL and a level of IL-2 production generated in response to free SIINFEKL peptide of less than 275 pg/mL.

The record behind these values is patent US20140363465A1.
